Read-outs that look alike come from different tables or passages of the source.

As usually defined, the Kd is the equilibrium constant for the complex coming apart. In general, kon refers to the second-order rate constant of association.

The target of assay [1] is T1, full length spike (S) protein of SARS-CoV-2 (SARS-CoV-2, UniProt P0DTC2 14-1273). Nature of the assay: cell-based or functional assay.
For assay [2], the target named is T1, full length spike (S) protein of …. Nature of the assay: cell-based or functional assay. This is another data set of the same source.
For assay [3], the target named is recombinant RBD of the spike protein of SARS-CoV-2 (residues Arg319-Phe541) (SARS-CoV-2, UniProt P0DTC2 319-541).
Assay [4] deals with T1, full length spike (S) protein of …. The experiment in a line: cell-based or functional assay. The source holds these as a separate data set.
The target in assay [5] is spike protein on live SARS-CoV-2 (SARS-CoV-2, UniProt P0DTC2 14-1273). The experiment in a line: cell-based or functional assay.
Assay [6] has as its target spike (S) protein of live SARS-CoV-2 (SARS-CoV-2, UniProt P0DTC2 14-1273). The experiment in a line: cell-based or functional assay.
The target in assay [7] is full length spike (S) protein of SARS-CoV-2 on pseudovirus (SARS-CoV-2, UniProt P0DTC2 14-1273). The experiment in a line: cell-based or functional assay.
For assay [8], the target named is full length S protein of SARS-CoV-2 (on pseudovirus) (SARS-CoV-2, UniProt P0DTC2 14-1273). Nature of the assay: cell-based or functional assay.
The target of assay [9] is spike protein of live SARS-CoV-2 (SARS-CoV-2, UniProt P0DTC2 14-1273). Nature of the assay: cell-based or functional assay.

B1: P4B-1F4 (antibody, human IgG1, kappa, V domains shown)
VH: QVQLVESGGGVVQPGRSLRLSCAASGFTFSSYGMHWVRQAPGKGLEWVAVISYDGSNKYYADSVKGRFTISRDNSKNTLYLQINSLRAEDTAVYYCAKGPRYSSSWYISLYYYYGMDVWGQGTTVTVSS
VL: not shown
On to B1, for which the “IC90, Pesudovirus neutralization” value in assay [1] worked out at 14.5 µg/mL.

B2: P2B-1G5 (antibody, human IgG1, lambda, V domains shown)
VH: QVQLVQSGSELKKPGASVKVSCKASGYTFTTYVMNWVRQAPGQGLEWMGWINTNTGNPTYAQGFTGRFVFSLDTSVSTASLQISSLKAEDTAVYYCSCEITTLGGMDVWGQGTTVTVSS
VL: SYVLTQPPSVSVAPGKTARITCGGNNIGSKSVHWYQQKPGQAPVLVIYYDSDRPSGIPERFSGSNSGNTATLTISGVEAGDEADYYCQVWDSISDHRVFGGGTKLTVLG
Take B2: in [2], the “IC50, pseudovirus neutralization” value was determined as 0.11 µg/mL. In assay [3], the Kd was found to be 0.1 nM and the association rate constant (kon) came out at 1.38e+06 M⁻¹ s⁻¹.

B3: P2B-2F6 (antibody, V domains shown)
VH: QVQLQESGPGLVKPSETLSLTCTVSGYSISSGYYWGWIRQPPGKGLEWIGSIYHSGSTYYNPSLKTRVTISVDTSKNQFSLKLSSVTAADTAVYYCARAVVGIVVVPAAGRRAFDIWGQGTMVTVSS
VL: QSALTQPPSASGSPGQSVTISCTGTSSDVGGYNYVSWYQQHPGKAPKLMIYEVSKRPSGVPDRFSGSKSGNTASLTVSGLQAEDEADYYCSSYAGSNNLVFGGGTKLTVLG
For the molecule B3, in assay [4], the “IC50, pseudovirus neutralization” value came to 0.05 µg/mL; the “Neutralizing activity (%) Mean at 0.0228624 µg/ml” value was determined as 39.4%; the “Neutralizing activity (%) Mean at 0.0685871 µg/ml” value stood at 51.8%; the “Neutralizing activity (%) Mean at 0.2057613 µg/ml” value stood at 67.1%. In assay [4], the “Neutralizing activity (%) Mean at 0.6172839 µg/ml” value came out at 81.4%, the “Neutralizing activity (%) Mean at 1.851852 µg/ml” value is 89%, the “Neutralizing activity (%) Mean at 5.555555 µg/ml” value came out at 93.5% and the “Neutralizing activity (%) Mean at 16.66667 µg/ml” value was found to be 95.4%. Further, the “Neutralizing activity (%) Mean at 50 µg/ml” value in [4] worked out at 97.4%. In assay [5], the “IC50, live SARS-CoV-2 focus reduction neutralization test (FRNT)” value came out at 0.41 µg/mL.

B4: P2B-2F6 (antibody, V domains shown)
VH: QVQLQESGPGLVKPSETLSLTCTVSGYSISSGYYWGWIRQPPGKGLEWIGSIYHSGSTYYNPSLKTRVTISVDTSKNQFSLKLSSVTAADTAVYYCARAVVGIVVVPAAGRRAFDIWGQGTMVTVSS
VL: QSALTQPPSASGSPGQSVTISCTGTSSDVGGYNYVSWYQQHPGKAPKLMIYEVSKRPSGVPDRFSGSKSGNTASLTVSGLQAEDEADYYCSSYAGSNNLVFGGGTKLTVLG
Consider B4, for which, in assay [6], the “Live virus IC50” value came out at 0.407 µg/mL and the “Live virus IC80” value stood at 2.43 µg/mL. Besides, in [7], the “Pseudovirus IC50” value was 0.05 µg/mL and the “Pseudovirus IC80” value was determined as 0.607 µg/mL.

B5: P2B-2F6 (antibody, V domains shown)
VH: QVQLQESGPGLVKPSETLSLTCTVSGYSISSGYYWGWIRQPPGKGLEWIGSIYHSGSTYYNPSLKTRVTISVDTSKNQFSLKLSSVTAADTAVYYCARAVVGIVVVPAAGRRAFDIWGQGTMVTVSS
VL: QSALTQPPSASGSPGQSVTISCTGTSSDVGGYNYVSWYQQHPGKAPKLMIYEVSKRPSGVPDRFSGSKSGNTASLTVSGLQAEDEADYYCSSYAGSNNLVFGGGTKLTVLG
As for B5, in assay [8], the “Pseudovirus IC50” value amounted to 0.05 µg/mL and the “Pseudovirus IC80” value was 0.607 µg/mL. Also, the “Live virus IC50” value in assay [9] worked out at 0.407 µg/mL.

B6: P2A-1A8 (antibody, V domains shown)
VH: EVQLVESGGDLVQPGRSLRLSCAASGFAFDDYAMHWVRQAPGKGLEWVSGSTWNSGTIAYADSVKGRFTISRDNAKKSLYLQMNSLRTEDTALYYCAKLGGYSDYDYPRPGDHYYGLDVWGQGTTVTVSS
VL: QSALTQPASVSGSPGQSITISCTGTSSDVGSYNLVSWYQQHPGKVPKLLIYDVNKRPSGISNRFSGSKSGNTASLTISGLQAEDEADYYCRSYTDSNTYVFGTGTKVTVLG
As for B6, in assay [4], the “IC50, pseudovirus neutralization” value is 7.68 µg/mL; the “Neutralizing activity (%) Mean at 0.0228624 µg/ml” value came out at 4.34%; the “Neutralizing activity (%) Mean at 0.0685871 µg/ml” value came out at 13.2%; the “Neutralizing activity (%) Mean at 0.2057613 µg/ml” value was found to be 14.1%. For the same molecule, in [4], the “Neutralizing activity (%) Mean at 0.6172839 µg/ml” value was determined as 16.5%, the “Neutralizing activity (%) Mean at 1.851852 µg/ml” value was 26.7%, the “Neutralizing activity (%) Mean at 5.555555 µg/ml” value was 44.8% and the “Neutralizing activity (%) Mean at 16.66667 µg/ml” value came to 67.8%. The “Neutralizing activity (%) Mean at 50 µg/ml” value in assay [4] amounted to 88.2%. Besides, the “IC50, live SARS-CoV-2 focus reduction neutralization test (FRNT)” value in assay [5] came to 35.9 µg/mL.

These data come from patent publication US20210292392A1 (TSB THERAPEUTICS BEIJING, published 2021).
